The values below come from the supplement of paper PMC11246515.

A short description of this data set: total protein half-life in vivo (active degradation + dilution); higher = more stable protein.
[1] abbreviates: E. coli NCM3722 delta-clpP delta-lon delta-hslV, growth: N-lim chemostat, doubling time 6 h.
[2] abbreviates: E. coli NCM3722 delta-clpP, growth: N-lim chemostat, doubling time 6 h.
The mark [3] stands for this setting: E. coli NCM3722 delta-hslV, growth: N-lim chemostat, doubling time 6 h.
The mark [4] stands for this setting: E. coli NCM3722 delta-lon, growth: N-lim chemostat, doubling time 6 h.
[5] abbreviates: E. coli NCM3722 delta-smpB, growth: N-lim chemostat, doubling time 6 h.
Setting [6] is: wild type E. coli NCM3722, growth: C-lim chemostat, doubling time 6 h.
The mark [7] stands for this setting: wild type E. coli NCM3722, growth: C-lim chemostat, doubling time 12 h.
The mark [8] stands for this setting: wild type E. coli NCM3722, growth: N-lim chemostat, doubling time 6 h.
Where [9] appears, read: wild type E. coli NCM3722, growth: N-lim chemostat, doubling time 12 h.
[10] abbreviates: wild type E. coli NCM3722, growth: P-lim chemostat, doubling time 6 h.
[11] abbreviates: wild type E. coli NCM3722, growth: P-lim chemostat, doubling time 12 h.
[12] abbreviates: wild type E. coli NCM3722, growth: C-lim chemostat, doubling time 3 h.

± gives the standard deviation of the averaged measurements.

As to “MADYQGKNVVIIGLGLTGLSCVDFFLARGVTPRVMDTRMTPPGLDKLPEAVERHTGSLNDEWLMAADLIVASPGIALAHPSLSAAADAGIEIVGDIELFCREAQAPIVAITGSNGKSTVTTLVGEMAKAAGVNVGVGGNIGLPALMLLDDECELYVLELSSFQLETTSSLQAVAATILNVTEDHMDRYPFGLQQYRAAKLRIYENAKVCVVNADDALTMPIRGADERCVSFGVNMGDYHLNHQQGETWLRVKGEKVLNVKEMKLSGQHNYTNALAALALADAAGLPRASSLKALTTFTGLPHRFEVVLEHNGVRWINDSKATNVGSTEAALNGLHVDGTLHLLLGGDGKSADFSPLARYLNGDNVRLYCFGRDGAQLAALRPEVAEQTETMEQAMRLLAPRVQPGDMVLLSPACASLDQFKNFEQRGNEFARLAKELG”, the “total protein half-life in vivo” value is 5.112 ± 0.021 h under setting [1]; 4.445 ± 0.041 h under setting [2]; 4.9241 ± 0.00076 h under setting [3]; 5.5 ± 0.35 h under setting [4]; 4.73 ± 0.097 h under setting [5]; 5.38 ± 0.69 h under setting [6]. In addition, the “total protein half-life in vivo” value stood at 12.18 ± 0.043 h under setting [7], 4.57 ± 0.075 h under setting [8], 9.03 ± 0.63 h under setting [9] and 5.815 ± 0.041 h under setting [10].

Turning to “MHPRFQTAFAQLADNLQSALEPILADKYFPALLTGEQVSSLKSATGLDEDALAFALLPLAAACARTPLSNFNVGAIARGVSGTWYFGANMEFIGATMQQTVHAEQSAISHAWLSGEKALAAITVNYTPCGHCRQFMNELNSGLDLRIHLPGREAHALRDYLPDAFGPKDLEIKTLLMDEQDHGYALTGDALSQAAIAAANRSHMPYSKSPSGVALECKDGRIFSGSYAENAAFNPTLPPLQGALILLNLKGYDYPDIQRAVLAEKADAPLIQWDATSATLKALGCHSIDRVLLA [P0ABF6]”, the “total protein half-life in vivo” value runs as follows: under setting [1], 5.28 ± 0.35 h; under setting [2], 5.6 ± 0.071 h; under setting [3], 6 ± 1.1 h; under setting [4], 6.28 ± 0.78 h; under setting [5], 4.89 ± 0.18 h; under setting [6], 6.09 ± 0.4 h. Moreover, the “total protein half-life in vivo” value under setting [7] is 10.7 ± 0.78 h; the “total protein half-life in vivo” value under setting [8] is 5.04 ± 0.077 h; the “total protein half-life in vivo” value under setting [9] is 8.624 ± 0.078 h; the “total protein half-life in vivo” value under setting [10] came to 5.88 ± 0.059 h; the “total protein half-life in vivo” value under setting [11] amounted to 11.7 ± 0.35 h.

On to “MTIYTLSHGSLKLDVSDQGGVIEGFWRDTTPLLRPGKKSGVATDASCFPLVPFANRVSGNRFVWQGREYQLQPNVEWDAHYLHGDGWLGEWQCVSHSDDSLCLVYEHRSGVYHYRVSQAFHLTADTLTVTLSVTNQGAETLPFGTGWHPYFPLSPQTRIQAQASGYWLEREQWLAGEFCEQLPQELDFNQPAPLPRQWVNNGFAGWNGQARIEQPQEGYAIIMETTPPAPCYFIFVSDPAFDKGYAFDFFCLEPMSHAPDDHHRPEGGDLIALAPGESTTSEMSLRVEWL”, for which the “total protein half-life in vivo” value by setting is: under setting [1], 6.63 h; under setting [12], 0.925 h; under setting [7], 10.7 h; under setting [10], 6.42 h; under setting [11], 11.3 ± 0.92 h.

On to “MPVRAQRIQHVMQDTIINFYSTSDDYGDFSNFAAWPIKVDGKTWPTSEHYFQAQKFLDEKYREEIRRVSSPMVAARMGRDRSKPLRKNWESVKEQVMRKALRAKFEQHAELRALLLATAPAKLVEHTENDAYWGDGGHGKGKNRLGYLLMELREQLAIEK”, for which the “total protein half-life in vivo” value is, setting by setting: under setting [3], 4.25 h; under setting [7], 12.3 h.

Regarding “MWIGIISLFPEMFRAITDYGVTGRAVKNGLLSIQSWSPRDFTHDRHRTVDDRPYGGGPGMLMMVQPLRDAIHAAKAAAGEGAKVIYLSPQGRKLDQAGVSELATNQKLILVCGRYEGIDERVIQTEIDEEWSIGDYVLSGGELPAMTLIDSVSRFIPGVLGHEASATEDSFAEGLLDCPHYTRPEVLEGMEVPPVLLSGNHAEIRRWRLKQSLGRTWLRRPELLENLALTEEQARLLAEFKTEHAQQQHKHDGMA [P0A873]”, the “total protein half-life in vivo” value is, setting by setting: under setting [1], 4.44 ± 1.1 h; under setting [2], 4.01 ± 0.084 h; under setting [3], 4.21 ± 0.043 h; under setting [4], 4.7 ± 0.54 h; under setting [5], 4.21 ± 0.33 h; under setting [12], 3.04 ± 0.49 h. Moreover, the “total protein half-life in vivo” value under setting [6] came out at 5.88 ± 0.59 h; the “total protein half-life in vivo” value under setting [7] amounted to 8.46 ± 1.3 h; the “total protein half-life in vivo” value under setting [8] worked out at 4.25 ± 0.34 h; the “total protein half-life in vivo” value under setting [9] came out at 7.45 ± 0.68 h; the “total protein half-life in vivo” value under setting [10] was 5.85 ± 0.19 h; the “total protein half-life in vivo” value under setting [11] is 10.4 ± 0.29 h.

As for “MDFPQRVNGWALYAHPCFQETYDALVAEVETLKGKDPENYQRKAATKLLAVVHKVIEEHITVNPSSPAFRHGKSLGSGKNKDWSRVKFGAGRYRLFFRYSEKEKVIILGWMNDENTLRTYGKKTDAYTVFSKMLKRGHPPADWETLTRETEETH”, the “total protein half-life in vivo” value runs as follows: under setting [2], 6.54 h; under setting [3], 5.12 h; under setting [4], 7.11 ± 0.75 h; under setting [5], 5.58 h; under setting [12], 3.3 h; under setting [6], over 8 h. For the same sequence, the “total protein half-life in vivo” value under setting [7] came out at 10.2 h; the “total protein half-life in vivo” value under setting [8] worked out at 6.09 ± 0.47 h; the “total protein half-life in vivo” value under setting [9] came out at 12.2 h; the “total protein half-life in vivo” value under setting [10] amounted to 5.56 ± 0.21 h; the “total protein half-life in vivo” value under setting [11] is 15.6 h.

As for “MKESNSRREFLSQSGKMVTAAALFGTSVPLAHAAVAGTLNCEANNTMKITDPHYYLDNVLLETGFDYENGVAVQTRTARQTVEIQDGKIVALRENKLHPDATLPHYDAGGKLMLPTTRDMHIHLDKTFYGGPWRSLNRPAGTTIQDMIKLEQKMLPELQPYTQERAEKLIDLLQSKGTTIARSHCNIEPVSGLKNLQNLQAVLARRQAGFECEIVAFPQHGLLLSKSEPLMREAMQAGAHYVGGLDPTSVDGAMEKSLDTMFQIALDYDKGVDIHLHETTPAGVAAINYMVETVEKTPQLKGKLTISHAFALATLNEQQVDELANRMVVQQISIASTVPIGTLHMPLKQLHDKGVKVMTGTDSVIDHWSPYGLGDMLEKANLYAQLYIRPNEQNLSRSLFLATGDVLPLNEKGERVWPKAQDDASFVLVDASCSAEAVARISPRTATFHKGQLVWGSVAG”, the “total protein half-life in vivo” value reads like this: under setting [1], 4.64 ± 0.15 h; under setting [2], 4.34 ± 0.53 h; under setting [3], 4.51 ± 0.31 h; under setting [4], 4.82 ± 0.11 h; under setting [5], 3.937 ± 0.008 h; under setting [12], 3.21 ± 0.41 h. The “total protein half-life in vivo” value reads like this: under setting [7], 9.95 ± 0.62 h; under setting [8], 4.32 ± 0.17 h; under setting [9], 6.843 ± 0.056 h; under setting [10], 5.67 ± 0.43 h; under setting [11], 11.53 ± 0.036 h.

With “MNYELLTTENAPVKMWTKGVPVEADARQQLINTAKMPFIFKHIAVMPDVHLGKGSTIGSVIPTKGAIIPAAVGVDIGCGMNALRTALTAEDLPENLAELRQAIETAVPHGRTTGRCKRDKGAWENPPVNVDAKWAELEAGYQWLTQKYPRFLNTNNYKHLGTLGTGNHFIEICLDESDQVWIMLHSGSRGIGNAIGTYFIDLAQKEMQETLETLPSRDLAYFMEGTEYFDDYLKAVAWAQLFASLNRDAMMENVVTALQSITQKTVRQPQTLAMEEINCHHNYVQKEQHFGEEIYVTRKGAVSARAGQYGIIPGSMGAKSFIVRGLGNEESFCSCSHGAGRVMSRTKAKKLFSVEDQIRATAHVECRKDAEVIDEIPMAYKDIDAVMAAQSDLVEVIYTLRQVVCVKG”, the “total protein half-life in vivo” value is, setting by setting: under setting [1], 5.37 ± 0.74 h; under setting [3], 1.46 ± 0.41 h; under setting [4], 2.04 ± 0.29 h; under setting [5], 1.46 ± 0.066 h; under setting [12], 1.6 ± 0.19 h; under setting [6], 2.78 ± 0.54 h. The “total protein half-life in vivo” value runs as follows: under setting [7], 3.19 ± 0.052 h; under setting [8], 1.73 h; under setting [9], 1.67 ± 0.49 h; under setting [10], 1.98 ± 0.61 h; under setting [11], 3.92 ± 0.64 h.
